Measurements from patent US9845340B2, “Peptides that specifically bind HGF receptor (cMet) and uses thereof” (Dyax Corp., priority 2003, dated 2017).

How the values were obtained:
[1] = target: cMet-Fc fusion protein (Homo sapiens, UniProt P08581); assay: Protein phage ELISA: peptide-displaying phage binding to soluble cMet-Fc versus TRAIL-Fc; conditions: phage isolate; cMet-Fc vs. TRAIL-Fc
How it was run: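 Phage displaying selected peptides were incubated 2 h at room temperature on wells coated with 0.5 μg/mL cMet-Fc, with TRAIL-Fc coating as the unrelated-Fc specificity control.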

[2] = target: T1, 3T3 cells that over-express human cMet (Homo sapiens, UniProt P08581); assay: Whole cell ELISA of peptide-displaying phage; format: cell-based; conditions: phage isolate; 3T3 cells expressing human cMet vs. non-expressing 3T3 cells
T1 construct: expressed in transfected cells; host or cells: 3T3 cells
How it was run: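 Phage displaying peptides, pre-blocked 1 h at 37 °C, incubated 1 h at RT on glutaraldehyde-fixed (0.1%, 12 min, 37 °C) cMet-overexpressing 3T3 cells (10^5 per well). Binding read out by HRP anti-M13 antibody after PBST washing.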

cMet-Fc fusion protein, sequence (P08581 25-307 limits assumed): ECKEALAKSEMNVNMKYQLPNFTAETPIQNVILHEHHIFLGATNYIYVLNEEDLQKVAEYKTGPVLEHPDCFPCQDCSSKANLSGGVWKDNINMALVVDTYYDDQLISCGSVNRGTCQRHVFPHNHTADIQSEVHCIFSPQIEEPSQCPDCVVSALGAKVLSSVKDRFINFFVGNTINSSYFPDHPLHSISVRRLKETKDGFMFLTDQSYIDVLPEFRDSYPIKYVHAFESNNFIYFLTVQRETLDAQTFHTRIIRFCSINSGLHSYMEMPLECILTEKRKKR
cMet-Fc fusion protein, sequence (P08581 with tags, fused parts or gaps limits assumed): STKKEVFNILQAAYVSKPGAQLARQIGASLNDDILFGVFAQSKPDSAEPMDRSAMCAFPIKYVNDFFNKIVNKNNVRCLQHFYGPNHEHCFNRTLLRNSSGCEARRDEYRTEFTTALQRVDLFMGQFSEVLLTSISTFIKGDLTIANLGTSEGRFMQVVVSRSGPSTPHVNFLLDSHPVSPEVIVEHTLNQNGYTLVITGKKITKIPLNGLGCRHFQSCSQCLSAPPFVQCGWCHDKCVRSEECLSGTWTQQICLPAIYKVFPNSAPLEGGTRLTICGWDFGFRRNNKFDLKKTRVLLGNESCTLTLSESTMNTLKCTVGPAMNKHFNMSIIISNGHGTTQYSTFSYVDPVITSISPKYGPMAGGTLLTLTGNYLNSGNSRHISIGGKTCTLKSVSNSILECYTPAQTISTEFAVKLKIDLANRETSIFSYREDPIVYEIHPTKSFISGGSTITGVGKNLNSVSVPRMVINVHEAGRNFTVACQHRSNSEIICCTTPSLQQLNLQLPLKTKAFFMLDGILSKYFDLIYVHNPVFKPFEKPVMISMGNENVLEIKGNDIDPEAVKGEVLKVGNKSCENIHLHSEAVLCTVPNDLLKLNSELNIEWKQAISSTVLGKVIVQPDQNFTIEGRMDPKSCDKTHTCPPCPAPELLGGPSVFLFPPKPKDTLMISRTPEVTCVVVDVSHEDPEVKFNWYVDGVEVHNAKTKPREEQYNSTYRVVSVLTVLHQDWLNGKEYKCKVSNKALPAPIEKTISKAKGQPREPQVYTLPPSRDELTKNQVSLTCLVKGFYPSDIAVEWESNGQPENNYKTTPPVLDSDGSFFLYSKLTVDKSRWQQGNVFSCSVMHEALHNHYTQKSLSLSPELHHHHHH
T1 sequence (P08581 25-1390): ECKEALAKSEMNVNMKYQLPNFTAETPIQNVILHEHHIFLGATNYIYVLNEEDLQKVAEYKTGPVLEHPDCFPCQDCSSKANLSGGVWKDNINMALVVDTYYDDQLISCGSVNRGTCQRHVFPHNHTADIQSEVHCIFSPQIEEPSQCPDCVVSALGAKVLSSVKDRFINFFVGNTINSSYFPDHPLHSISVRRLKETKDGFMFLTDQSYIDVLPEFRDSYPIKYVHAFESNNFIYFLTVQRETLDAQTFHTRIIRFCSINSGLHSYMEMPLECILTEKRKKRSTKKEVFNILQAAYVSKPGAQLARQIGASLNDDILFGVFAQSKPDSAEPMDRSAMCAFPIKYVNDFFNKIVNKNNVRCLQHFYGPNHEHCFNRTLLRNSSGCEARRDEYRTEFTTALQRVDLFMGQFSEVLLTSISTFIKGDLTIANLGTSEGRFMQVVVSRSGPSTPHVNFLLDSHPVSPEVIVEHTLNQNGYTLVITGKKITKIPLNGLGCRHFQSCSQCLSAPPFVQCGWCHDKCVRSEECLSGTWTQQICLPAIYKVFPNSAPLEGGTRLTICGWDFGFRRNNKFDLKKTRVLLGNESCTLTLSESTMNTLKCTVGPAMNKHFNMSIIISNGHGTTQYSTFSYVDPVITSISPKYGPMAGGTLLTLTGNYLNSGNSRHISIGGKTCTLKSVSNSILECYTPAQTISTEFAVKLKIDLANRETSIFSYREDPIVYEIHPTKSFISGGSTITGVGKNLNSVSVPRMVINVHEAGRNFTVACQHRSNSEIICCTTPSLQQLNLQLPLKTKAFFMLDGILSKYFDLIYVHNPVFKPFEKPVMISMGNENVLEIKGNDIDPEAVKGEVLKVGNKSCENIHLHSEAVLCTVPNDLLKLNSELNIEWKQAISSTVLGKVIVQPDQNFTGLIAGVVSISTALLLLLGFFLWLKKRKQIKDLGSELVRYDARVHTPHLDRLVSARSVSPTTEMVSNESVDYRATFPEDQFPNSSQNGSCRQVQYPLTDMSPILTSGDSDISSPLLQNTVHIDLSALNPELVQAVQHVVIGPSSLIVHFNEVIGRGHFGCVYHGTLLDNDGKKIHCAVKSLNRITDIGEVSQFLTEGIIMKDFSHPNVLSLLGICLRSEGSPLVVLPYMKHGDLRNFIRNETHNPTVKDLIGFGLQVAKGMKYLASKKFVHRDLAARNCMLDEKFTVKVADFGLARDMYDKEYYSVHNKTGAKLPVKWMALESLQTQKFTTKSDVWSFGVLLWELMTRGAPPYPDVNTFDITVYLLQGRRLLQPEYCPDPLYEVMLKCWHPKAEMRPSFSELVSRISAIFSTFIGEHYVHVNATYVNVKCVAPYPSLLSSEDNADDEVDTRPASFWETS

Row | Molecule | Protein ELISA [1] [fold over background] | WC ELISA [2] [fold over background]
1 | GDPWWCFEKDSFIPFACWHHDP (Synthetically generated cMet-binding peptide sequence) [SEQ ID NO: 396] | 7.4 | 1.30
2 | GSFTACNKTSTTRQPCNPYAP (Synthetically generated cMet-binding peptide sequence) [SEQ ID NO: 384] | 3.1 | 1.37
3 | AGWSDCLGPPQFTCVHWGT (Synthetically generated cMet-binding peptide sequence) [SEQ ID NO: 083] | 3.9 | 1.33
4 | GSHHTCLDGFAGWRCTEVAP (Synthetically generated cMet-binding peptide sequence) [SEQ ID NO: 366] | 10.4 | 1.33
5 | CC[C@H](C)[C@H](NC(=O)[C@H](CC(=O)O)NC(=O)CNC(=O)[C@H](C)NC(C)=O)C(=O)N[C@H](C(=O)N[C@H]1CSSC[C@@H](C(=O)N[C@@H](Cc2c[nH]c3ccccc23)C(=O)N[C@@H](CO)C(=O)N[C@@H](Cc2c[nH]c3ccccc23)C(=O)NCC(=O)N[C@H](C(=O)NCC(=O)NCC(=O)NCC(=O)N[C@@H](CCCCNC(=O)c2ccc3c(c2)C(=O)OC32c3ccc(O)cc3Oc3cc(O)ccc32)C(N)=O)[C@@H](C)O)NC(=O)[C@H](CCC(=O)O)NC(=O)[C@H](Cc2ccccc2)NC(=O)[C@H](Cc2ccc(O)cc2)NC(=O)[C@@H]2CCCN2C(=O)[C@H](Cc2c[nH]cn2)NC(=O)CNC(=O)[C@H]([C@@H](C)O)NC1=O)C(C)C [SEQ ID NO: 068] | 6.3 | 1.33
6 | CC[C@H](C)[C@H](NC(=O)[C@H](C)NC(=O)[C@@H](NC(=O)[C@H](Cc1ccccc1)NC(=O)[C@H](Cc1ccccc1)NC(=O)[C@H](CC(N)=O)NC(=O)[C@H](CCCNC(=N)N)NC(=O)[C@@H](NC(=O)[C@H](Cc1c[nH]cn1)NC(=O)[C@H](CC(=O)O)NC(=O)[C@@H](NC(=O)[C@H](Cc1c[nH]c2ccccc12)NC(=O)[C@H](CC(C)C)NC(=O)[C@H](CCC(=O)O)NC(=O)[C@H](Cc1ccccc1)NC(=O)CNC(=O)[C@H](CCC(N)=O)NC(=O)[C@H](C)NC(C)=O)C(C)C)[C@@H](C)O)[C@@H](C)CC)C(=O)N[C@@H](CO)C(=O)N1CCC[C@H]1C(=O)NCC(=O)NCC(=O)NCC(=O)N[C@@H](CCCCNC(=O)c1ccc2c(c1)C(=O)OC21c2ccc(O)cc2Oc2cc(O)ccc21)C(N)=O [SEQ ID NO: 469] | 3.8 | 1.20
7 | GSSQICAVYLDDTHNCERHAP (Synthetically generated cMet-binding peptide sequence) [SEQ ID NO: 373] | 4.0 | 1.30
8 | AGYWHCKGPPHFACEFHGT (Synthetically generated cMet-binding peptide sequence) [SEQ ID NO: 077] | 5.5 | 1.40
9 | AGTMYCLGPPTFICQQYGT (Synthetically generated cMet-binding peptide sequence) [SEQ ID NO: 084] | 13.0 | 1.23
10 | CC[C@H](C)[C@H](NC(=O)[C@H](CCC(N)=O)NC(=O)[C@H](CCCNC(=N)N)NC(=O)CNC(=O)[C@H](CO)NC(=O)[C@H](CC(=O)O)NC(=O)[C@H](CC(=O)O)NC(=O)[C@@H](NC(=O)[C@@H]1CCCN1C(=O)[C@H](Cc1ccccc1)NC(=O)[C@@H](NC(=O)[C@H](Cc1ccc(O)cc1)NC(=O)[C@@H]1CCCN1C(=O)[C@H](CO)NC(=O)[C@H](CCC(N)=O)NC(=O)[C@H](C)NC(C)=O)[C@@H](C)CC)[C@@H](C)CC)C(=O)N[C@@H](Cc1ccccc1)C(=O)N[C@H](C(=O)N[C@H](C(=O)N[C@@H](CCC(N)=O)C(=O)N[C@@H](Cc1c[nH]c2ccccc12)C(=O)NCC(=O)NCC(=O)NCC(=O)NCC(=O)N[C@@H](CCCCNC(=O)c1ccc2c(c1)C(=O)OC21c2ccc(O)cc2Oc2cc(O)ccc21)C(N)=O)[C@@H](C)CC)C(C)C [SEQ ID NO: 463] | 4.4 | 1.23
11 | CC[C@H](C)[C@H](NC(=O)[C@H](Cc1c[nH]cn1)NC(=O)[C@H](CC(C)C)NC(=O)[C@@H](NC(=O)[C@H](CCSC)NC(=O)[C@H](CCSC)NC(=O)[C@H](CCC(N)=O)NC(=O)CNC(=O)[C@H](Cc1ccc(O)cc1)NC(=O)[C@H](CCC(N)=O)NC(=O)[C@H](Cc1c[nH]cn1)NC(=O)[C@H](CCC(N)=O)NC(=O)[C@H](C)NC(C)=O)C(C)C)C(=O)N[C@@H](CCC(N)=O)C(=O)N[C@@H](Cc1ccc(O)cc1)C(=O)N[C@@H](CC(=O)O)C(=O)N[C@@H](CCSC)C(=O)NCC(=O)N[C@@H](CCC(=O)O)C(=O)N[C@@H](Cc1ccccc1)C(=O)N[C@H](C(=O)N1CCC[C@H]1C(=O)NCC(=O)NCC(=O)NCC(=O)N[C@@H](CCCCNC(=O)c1ccc2c(c1)C(=O)OC21c2ccc(O)cc2Oc2cc(O)ccc21)C(N)=O)[C@@H](C)CC [SEQ ID NO: 462] | 4.5 | 1.27
12 | GSTKVCHEKWNQLFCHNQAP (Synthetically generated cMet-binding peptide sequence) [SEQ ID NO: 368] | 7.0 | 1.27
13 | AQHVVTLTLIQMPFAFNFEPRM (Synthetically generated cMet-binding peptide sequence) [SEQ ID NO: 484] | 3.1 | 1.30
14 | AGLPKCSGPPWFSCYYGGT (Synthetically generated cMet-binding peptide sequence) [SEQ ID NO: 066] | 13.5 | 1.30
15 | GSEYSCRTSRCIFSAP (Synthetically generated cMet-binding peptide sequence) [SEQ ID NO: 006] | 3.2 | 1.33
16 | GSTMSCWRWGRDAYSCNQMAP (Synthetically generated cMet-binding peptide sequence) [SEQ ID NO: 372] | 4.6 | 1.37
17 | GSRFHCWQGDLMQTYCMPMAP (Synthetically generated cMet-binding peptide sequence) [SEQ ID NO: 376] | 3.0 | 1.30
18 | AQMGHHWDVQWDYKLFHVARGD (Synthetically generated cMet-binding peptide sequence) [SEQ ID NO: 473] | 3.7 | 1.23
19 | AGETKCSGPPYFYCWMEGT (Synthetically generated cMet-binding peptide sequence) [SEQ ID NO: 093] | 16.3 | 1.23
20 | AGFWDCGWMMQDCHMHGT (Synthetically generated cMet-binding peptide sequence) [SEQ ID NO: 045] | 3.9 | 1.33
